From patent US20110014656A1 (ZymoGenetics, published 2011)
Where “and” joins values, the source holds several entries; their conditions need not be identical. Equal values may be shown once.

Experiments:
[1] = biological target: T1, human IL-17RC, x1 splice variant, on transfected cells (human, UniProt Q8NAC3 21-791); assay: cell-based or functional assay
T1 sequence: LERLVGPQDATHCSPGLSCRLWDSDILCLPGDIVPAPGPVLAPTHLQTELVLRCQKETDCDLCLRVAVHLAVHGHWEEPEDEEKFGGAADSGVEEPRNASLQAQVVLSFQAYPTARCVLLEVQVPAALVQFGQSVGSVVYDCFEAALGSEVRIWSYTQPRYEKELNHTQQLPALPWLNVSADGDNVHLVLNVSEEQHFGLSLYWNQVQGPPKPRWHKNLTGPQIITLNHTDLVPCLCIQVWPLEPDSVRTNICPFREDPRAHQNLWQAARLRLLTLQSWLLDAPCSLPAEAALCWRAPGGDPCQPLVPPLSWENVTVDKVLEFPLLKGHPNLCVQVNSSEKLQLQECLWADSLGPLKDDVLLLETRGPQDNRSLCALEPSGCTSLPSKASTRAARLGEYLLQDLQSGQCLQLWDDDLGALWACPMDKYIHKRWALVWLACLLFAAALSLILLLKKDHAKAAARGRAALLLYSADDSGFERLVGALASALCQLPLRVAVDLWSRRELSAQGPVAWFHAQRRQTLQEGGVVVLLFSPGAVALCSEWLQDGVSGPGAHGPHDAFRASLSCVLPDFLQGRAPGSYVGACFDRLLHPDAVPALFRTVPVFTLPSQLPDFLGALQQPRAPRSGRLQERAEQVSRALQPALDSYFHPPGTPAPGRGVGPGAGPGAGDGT

[2] = biological target: T1, human IL-17RC, x1 splice variant, on …; assay: FACS, biotinylated cytokine on transiently transfected 293F cells
Source text: (§1) However, the other splice variants tested either included or excluded hIL-17RC exon 12. These variants were designated hIL-17RCx1 (identical in exon composition to mouse x1 above), hIL-17RCx4 (identical in exon composition to mouse x4 above), hIL-17RCx2, and hIL-17RCx7.

[3] = biological target: T2, human IL-17RC, x4 splice variant, on transfected cells (human, UniProt Q8NAC3 21-791); assay: as above
T2 construct: Expressed on 293F, BHK or NIH3T3 cells; also called hIL-17RCx4; hIL-17RCX4
T2 sequence: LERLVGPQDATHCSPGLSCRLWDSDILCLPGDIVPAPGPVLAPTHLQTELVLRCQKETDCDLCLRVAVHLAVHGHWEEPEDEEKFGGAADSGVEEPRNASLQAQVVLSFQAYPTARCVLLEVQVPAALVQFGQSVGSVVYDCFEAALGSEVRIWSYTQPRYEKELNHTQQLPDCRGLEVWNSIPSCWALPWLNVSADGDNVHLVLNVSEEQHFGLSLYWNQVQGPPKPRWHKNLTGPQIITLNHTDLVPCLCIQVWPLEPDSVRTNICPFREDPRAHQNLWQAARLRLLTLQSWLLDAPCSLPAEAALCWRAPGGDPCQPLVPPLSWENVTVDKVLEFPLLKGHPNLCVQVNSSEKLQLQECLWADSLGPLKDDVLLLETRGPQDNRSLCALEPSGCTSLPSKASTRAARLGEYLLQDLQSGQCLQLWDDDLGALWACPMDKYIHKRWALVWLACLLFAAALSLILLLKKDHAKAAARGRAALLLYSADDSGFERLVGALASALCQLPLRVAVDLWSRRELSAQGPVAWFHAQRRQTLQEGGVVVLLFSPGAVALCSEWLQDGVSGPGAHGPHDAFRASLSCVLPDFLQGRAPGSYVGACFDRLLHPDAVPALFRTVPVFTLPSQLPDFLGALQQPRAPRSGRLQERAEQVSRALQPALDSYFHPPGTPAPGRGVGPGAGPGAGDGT
Source text: as §1

[4] = biological target: T3, murine IL-17RA-Ig (mouse, UniProt Q60943 32-322); assay: Biacore, soluble receptor captured on chip, cytokine as analyte
T3 construct: also called mL-17RA-Ig; mIL-17RA-Fc; not shown: Ig/Fc part
T3 sequence (looked up): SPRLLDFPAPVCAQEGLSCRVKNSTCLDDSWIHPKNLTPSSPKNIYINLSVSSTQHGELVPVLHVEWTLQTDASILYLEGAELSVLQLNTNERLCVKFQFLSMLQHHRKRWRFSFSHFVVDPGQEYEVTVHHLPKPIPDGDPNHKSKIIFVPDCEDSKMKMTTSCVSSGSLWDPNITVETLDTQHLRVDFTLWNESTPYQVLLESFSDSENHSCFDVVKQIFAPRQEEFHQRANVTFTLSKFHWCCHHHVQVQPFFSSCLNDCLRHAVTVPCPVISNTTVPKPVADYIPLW

[5] = biological target: T4, IL17A-CH6/IL17F-CEE 2 chain heterodimer (human, UniProt Q16552 24-155; Q96PD4 31-163); assay: Biacore T100, receptor captured by anti-human IgG Fc-gamma on CM4 chip; ka1 of the bivalent analyte model
T4 construct: The entries may include a signal peptide; also called IL-17A/F heterodimer; zcyto40f2v.1-2chain
T4 sequence 1: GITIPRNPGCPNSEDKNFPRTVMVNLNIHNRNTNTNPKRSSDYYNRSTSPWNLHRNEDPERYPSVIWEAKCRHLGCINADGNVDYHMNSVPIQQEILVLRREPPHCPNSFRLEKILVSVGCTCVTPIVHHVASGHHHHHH
T4 sequence 2: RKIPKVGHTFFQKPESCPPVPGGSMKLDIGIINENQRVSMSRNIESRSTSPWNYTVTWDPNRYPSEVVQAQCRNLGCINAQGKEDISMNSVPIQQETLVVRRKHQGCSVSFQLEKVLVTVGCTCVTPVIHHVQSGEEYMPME
Procedure: (§2) The binding kinetics and affinity study was performed on a Biacore T100™ system (GE Healthcare, Piscataway, N.J.). Methods for the Biacore T100™ were programmed using Biacore T100™ Control Software, v 1.1.1. […] The capture antibody was covalently immobilized to a CM4 sensor chip using a mixture of 0.4 M EDC [N-ethyl-N′-(3-[…])carbodiimide] and 0.1 M NHS (N-hydroxysuccinimide) to a density of approximately 4000 RU. […] Capture of the receptor to the immobilized surface was performed at a flow rate of 10 μL/min. The Biacore instrument measures the mass of protein bound to the sensor chip surface, and thus, capture of the soluble receptor was verified for each analysis cycle.
(§3) Between analysis cycles, the flow cell was washed with 20 mM hydrochloric acid to regenerate the surface. […] Data was compiled using the Biacore T100™ Evaluation software (version 1.1.1). Data was processed by subtracting reference flow cell and blank injections. Baseline stability was assessed to ensure that the regeneration step provided a consistent binding surface throughout the sequence of injections. Duplicate injection curves were checked for reproducibility. […] If only one portion of the heterodimer binds to the receptor, a simple 1:1 binding model would be appropriate and the curves should fit well to this model. […]

[6] = biological target: T4, IL17A-CH6/IL17F-CEE 2 chain heterodimer; assay: cell-based or functional assay
[7] = biological target: T5, human IL-17F (human, UniProt Q96PD4 31-163); assay: cell-based or functional assay
T5 sequence: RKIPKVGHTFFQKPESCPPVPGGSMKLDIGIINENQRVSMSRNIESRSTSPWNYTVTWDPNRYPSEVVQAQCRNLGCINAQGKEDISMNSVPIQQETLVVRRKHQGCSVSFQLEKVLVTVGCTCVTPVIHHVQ

[8] = biological target: T6, human IL-17A (human, UniProt Q16552 24-155); assay: cell-based or functional assay
T6 sequence: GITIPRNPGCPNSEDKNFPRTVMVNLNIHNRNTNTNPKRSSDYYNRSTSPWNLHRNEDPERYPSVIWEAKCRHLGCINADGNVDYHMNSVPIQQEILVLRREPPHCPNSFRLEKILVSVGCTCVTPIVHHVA

[9] = biological target: single chain human IL17A:IL17F heterodimer (human); assay: cell-based or functional assay
[10] = biological target: T5, human IL-17F; assay: cell-based or functional assay; remark: listed apart in the source
[11] = biological target: T6, human IL-17A; assay: cell-based or functional assay; remark: listed apart in the source
[12] = biological target: T5, human IL-17F; assay: Biacore, receptor captured by anti-human IgG Fc on CM5 chip, ligand as analyte
Source text: (§4) The protocol was optimized to capture receptor at a theoretical binding max. before injecting a concentration series of each ligand to observe association and dissociation. […] The surface was regenerated with 2×30 sec. injections of pH 1.75 glycine between cycles.

[13] = biological target: T6, human IL-17A; assay: as above
Source text: as §4

[14] = biological target: T4, IL17A-CH6/IL17F-CEE 2 chain heterodimer; assay: Biacore T100, receptor captured by anti-human IgG Fc-gamma on CM4 chip; KA1 of the bivalent analyte model
Procedure: as §2, §3

[15] = biological target: T5, human IL-17F; assay: Biacore, summary of Table 11
Source text: as §4

[16] = biological target: T6, human IL-17A; assay: Biacore, summary of Table 11
Source text: as §4

[17] = biological target: T4, IL17A-CH6/IL17F-CEE 2 chain heterodimer; assay: Biacore T100, receptor captured by anti-human IgG Fc-gamma on CM4 chip; KD1 of the bivalent analyte model
Procedure: as §2, §3

[18] = biological target: T4, IL17A-CH6/IL17F-CEE 2 chain heterodimer; assay: Biacore T100, receptor captured by anti-human IgG Fc-gamma on CM4 chip; kd1 of the bivalent analyte model
Procedure: as §2, §3

B1: murine IL-17A (ligand)
chain: AAIIPQSSACPNTEAKDFLQNVKVNLKVFNSLGAKVSSRRPSDYLNRSTSPWTLHRNEDPDRYPSVIWEAQCRHQRCVNAEGKLDHHMNSVLIQQEILVLKREPESCPFTFRVEKMLVGVGCTCVASIVRQAA
notes: also called mIL-17A; mIL17A
- EC50, luciferase in nih3t3/kz142.8/hcytor14x1 cells [1]: ~0.004 µg/mL
- binding result [2]: no binding
- binding result [3]: no binding
- Kd [4]: 69 pM and 72 pM

B2: Variant 1454, soluble IL-17RC/IL-17RA polypeptide fused to Fc5 (Fc fusion)
chain: LRLLDHRALVCSQPGLNCTVKNSTCLDDSWIHPRNLTPSSPKDLQIQLHFAHTQQGDLFPVAHIEWTLQTDASILYLEGAELSVLQLNTNERLCVRFEFLSKLRHHHRRWRFTFSHFVVDPDQEYEVTVHHLPKPIPDGDPNHQSKNFLVPDCEHARMKVTTPCMSSALPWLNVSADGDNVHLVLNVSEEQHFGLSLYWNQVQGPPKPRWHKNLTGPQIITLNHTDLVPCLCIQVWPLEPDSVRTNICPFREDPRAHQNLWQAARLRLLTLQSWLLDAPCSLPAEAALCWRAPGGDPCQPLVPPLSWENVTVDKVLEFPLLKGHPNLCVQVNSSEKLQLQECLWADSLGPLKDDVLLLETRGPQDNRSLCALEPSGCTSLPSKASTRAARLGEYLLQDLQSGQCLQLWDDDLGALWACPMDKYIHKEPKSSDKTHTCPPCPAPEAEGAPSVFLFPPKPKDTLMISRTPEVTCVVVDVSHEDPEVKFNWYVDGVEVHNAKTKPREEQYNSTYRVVSVLTVLHQDWLNGKEYKCKVSNKALPSSIEKTISKAKGQPREPQVYTLPPSRDELTKNQVSLTCLVKGFYPSDIAVEWESNGQPENNYKTTPPVLDSDGSFFLYSKLTVDKSRWQQGNVFSCSVMHEALHNHYTQKSLSLSPGK
notes: also called IL-17RA/RC-Fc5; IL17RA/RC 1454
- kon [5]: 500000 M⁻¹ s⁻¹
- IC50, NIH-3T3/KZ170 luciferase reporter neutralization assay [6]: 3170 pM
- IC50, NIH-3T3/KZ170 luciferase reporter neutralization assay [7]: 874 pM
- IC50, luciferase in hIL-17RA/NIH3T3/KZ142.8 cells, 20 ng/ml IL-17F [7]: 0.48 µg/mL
- IC50, luciferase in hIL-17RCX4/NIH3T3/KZ142.8 cells, 1 ng/ml IL-17F [7]: 0.8 µg/mL
- IC50, NIH-3T3/KZ170 luciferase reporter neutralization assay [8]: 167 pM
- IC50, luciferase in hIL-17RA/NIH3T3/KZ142.8 cells, 0.5 ng/ml IL-17A [8]: 0.001 µg/mL
- IC50, NIH-3T3/KZ170 luciferase reporter neutralization assay [9]: 13300 pM
- IC50, huIL-17F(50 ng/ml) induction of G-CSF in SAEC [10]: 1.2 µg/mL
- IC50, huIL-17F(50 ng/ml) induction of IL-8 in SAEC [10]: 0.57 µg/mL
- IC50, huIL-17A(10 ng/ml) induction of G-CSF in SAEC [11]: 0.14 µg/mL
- IC50, huIL-17A(10 ng/ml) induction of IL-8 in SAEC [11]: 0.03 µg/mL
- Kd [12]: 143 pM and 126 pM
- koff [12]: 0.000261 s⁻¹ and 0.000315 s⁻¹
- kon [12]: 1.82e+06 M⁻¹ s⁻¹ and 2.49e+06 M⁻¹ s⁻¹
- Kd [13]: 43.9 pM and 38.2 pM
- koff [13]: 6.22e-05 s⁻¹ and 9.95e-05 s⁻¹
- kon [13]: 1.42e+06 M⁻¹ s⁻¹ and 2.61e+06 M⁻¹ s⁻¹
- Ka [14]: 2e+08 M⁻¹
- Kd [15]: ~140 pM
- Kd [16]: ~40 pM
- Kd [17]: 4000 pM
- koff [18]: 0.002 s⁻¹
